Test results as given in patent US20260234247A1.

These binders were tested against Rhesus LILRB1 (NP_001035762.2) protein (rhesus macaque) (UniProt F7H3G7) (assay: ELISA on rhesus LILRB1 (NP_001035762.2) protein).

Row | EC50 | Binder
1 | 0.08 nM | LK-RB1-11 (antibody, human IgG4 S228P, kappa, V domains shown) VH: QVTLKESGPGILQPSQTLSLTCSFSGFSLKTSGMSVGWIRQPSGKGLEWLAHIWWNDDKYYNPVLKGRLTISKDTSNNLVFLKIASVVSTDTATYYCVRYGNSHGYWYFDVWGTGTTVTVSS VL: NIVLTQSPASLAVSLGQRATISCRASESVDSYGNNFIHWYQQKPGQPPKVLIYYASNLEAGVPARFSGSGSRTDFTLTIDPVEAEDAATYYCQQNNEDPYTFGGGTKLEIER

The binders below were run against Cynomolgus LILRB2 on CHOK1 cells (cynomolgus) (assay: flow cytometry on CHOK1-cyno LILRB2 cells).

Row | EC50 | Binder
2 | 5.72 nM | LK-RB2-32 (antibody, human IgG4 S228P, kappa, V domains shown) VH: DVQLQESGPGLVKPSQSLSLTCSVTGYSITSGYYWNWIRQFPGNKLEWMGYISFDGSNHYNPSLRNRISITRDTFKNQFFLKLNSVTTEDTATFYCTRRDYNWFAYWGQGTLVTVSA VL: DIVLTQSPVTLSVTPGDSVSLSCRASQNINKNLHWYQQRSHESPRLLIKYVSQSISGIPSRFSGSGSGTDFTLSINSVETEDFGMYFCQQSNSWPLTFGAGTKLELRR
3 | 1.48 nM | LK-RB2-25 (antibody, human IgG4 S228P, kappa, V domains shown) VH: QVQLKESGPGLVAPSQSLSITCTVSGFSLTSYGVHWVRQPPGKGLEWLGVIWAGGSTKYNSALMSRLSINKDNSKSQVFLKMNSLQTDDTAMYYCARDQMVRSAMDYWGQGTSVTVSS VL: DIQMIQSPSSMFASLGDRVSLSCRASQGIRGNLDWYQQKPGGTIKLLIYSTSNLNSAVPSRFSGSGSGSDYSLTISNLESEDFADYYCLQRNASPYTFGGGTKLEIKR
4 | 2.11 nM | LK-RB2-26 (antibody, human IgG4 S228P, kappa, V domains shown) VH: QVQLKESGPGLVAPSQSLSITCTVSGFSLTSYGVHWVRQPPGKGLEWLGVIWAGGSTDYNAAFISRLNISKDISESQVFFRMNSLQTDDTAMYYCARDQMVRSAMDYWGQGTSVTVSS VL: DIQMIQSPSSMFASLGDRVSLSCRASQGIRGNLDWYQQKPGGTIKLLIYSTSNLNSAVPSRFSGSGSGSDYSLTISNLESEDFADYYCLQRNASPYTFGGGTKLEIKR
5 | 1.59 nM | LK-RB2-31 (antibody, human IgG4 S228P, kappa, V domains shown) VH: QVQLQQPGAELVKPGASMKLSCKASGYTFTTYYMYWVKQRPGLGLEWIGGINPSNGGTTFNEKFKNKATLTVDKSSSTAYMQLRSLTSEDSAVYYCTRWRFFDVWGAGTTVTVSS VL: SIVMTQTPEFLLVSAGDRVTITCKASQSVNNDVAWFQQKPGQSPKLLIYYASNRYTGVPDRFTGSGYGTDFTFTISTVQAEDLAIYFCQQDYSSPPTFGGATKLEIKR
6 | 2.14 nM | LK-RB2-27 (antibody, human IgG4 S228P, kappa, V domains shown) VH: DVKLVESGGGLVKPGGSLKLSCAASGFTFSSYSMSWVRQTPEKRLEWVATISTGGSYTYYPDSVKGRFTISRDNAKNTLYLQMSSLKSEDTAMFYCTRGSMDYWGQGTSVTVSS VL: DILMTQSPSSMSVSLGDTVSITCHASQDISSNIGWLQQKPGNSFKGLIYHGTNLEDGVPSRFSGSGSGADYSLTISSLESEDFADYYCVQYAQFPYTFGGGTKLEIKR
7 | 2.03 nM | LK-RB2-28 (antibody, human IgG4 S228P, kappa, V domains shown) VH: DVKLVESGGGLVKPGGSLKLSCAASGFTFSSYSMSWVRQTPEKRLEWVATISTGGSYTYYPDSMKGRFTISRDNAKNTLYLQMSSLKSEDTAMFYCTRGSMDYWGQGTSVTVSS VL: DILMTQSPSSMSVSLGDTVSIACHASQDISSNIGWLQQKPGNSFKGLIYHGTNLEDGVPSRFSGSGSGADYSLTISSLESEDFADYYCVQYAQFPYTFGGGTKLEIKR
8 | 2.3 nM | LK-RB2-34 (antibody, human IgG4 S228P, kappa, V domains shown) VH: DVKVVESGGGLVKPGGSLKLSCAASGFTFSSYSMSWVRQTPEKRLEWVATISTGSSYTYYSDSVKGRFTISRDNAKNTLYLQMSSLKSEDTAMFYCTRGSMDYWGQGTSVTVSS VL: DILMTQSPSSMSVSLGDTVSITCHASQDISSNIGWLQQKPGNSFKGLIYHGINLEDGVPSRFSGSGSGADYSLTISSLESEDFADYYCVQYAQFPYTFGGGTKLEIKR
9 | 1.5 nM | LK-RB2-41 (antibody, human IgG4 S228P, kappa, V domains shown) VH: EVQLQLSGPELVKPGASVKMSCKASGYTFTDYNMHWVKQSHGKSLEWIGYINPNNGGTTYNQKFKGKATLTVNKSSSTAYMELRSLTSEDSAVYYCARAPYYGSSYLLAYWGQGTLVTVSA VL: DIVMTQSHKFMSTSVGDRVSITCKASQDVSTAVAWYQQKPGQSPKLLIYSASYRYTGVPDRFTGSGSGTDFTFTISSVQAEDLAIYYCQQHYSIPWTFGGGTKLEIKR
10 | 1.04 nM | LK-RB2-30 (antibody, human IgG4 S228P, kappa, V domains shown) VH: EVQLVESGGGLVQPGGSLKLSCAASGFTFNTDGMSWVRQTPDKRLELVAIINSNGGSTYYPDSVKGRFTISRDNAKNTLYLQMSSLKSEDTAMYYCAREGSYGSWFAYWGQGTLVTVSA VL: DIQMTQSPASLSVSVGETVTITCRASENINNNLAWYHQKQGKSPQLLVYAATNLADGVPSRFSGSGSGTQYSLKINSLQSEDFGSYYCQHFWGTPFTFGGGTKLEIKR
11 | 2.86 nM | LK-RB2-42 (antibody, human IgG4 S228P, kappa, V domains shown) VH: EFQLQQSGPELVKPGASVKISCKASGYSFTDYNMNWVKQSNGKSLDWIGIINPKYGTTAYNQKLRDKATLTVDQSSSTAYMQLNSLTSEDSAVYYCASLNWDEGFAYWGQGTLVTVSP VL: DVLMTQTPLSLPVSLGDQASISCRSSQSIVHSNGNTYLEWYLQKPGQPPKLLIYKVSNRFSGVPERFSGSGSGTDFTLKINRVEAEDLGVYYCFQGSLVPPTFGGGTKLEIKR
12 | 2.09 nM | LK-RB2-29 (antibody, human IgG4 S228P, kappa, V domains shown) VH: QVQLQQSGAELARPGASVKLSCKASGYTFTSYWMQWVKQRPGQGLEWIGAIYPGDGDTRYTQKFKGKATLTADKSSSTAYMQLSSLASEDSAVYYCARGYYGSSYADYFDYWGQGTTLTVSS VL: DIQMTQSPASLSASVGETVTITCRASGNIHNYLAWYQQKQGKSPQLLVYNAKTLADGVPSRFSGSGSGTQYSLKINSLQPEDFGSYYCQHFWSTPPTFGGGTKLEIKR

Each binder was assayed against Rhesus LILRB1 (NP_001035762.2) on CHOK1 cells (rhesus macaque) (UniProt F7H3G7) (assay: cell based blocking assay on CHOK1-rhesus LILRB1 (NP_001035762.2) cells; blocked ligand not named).

Row | EC50 | Top Inhibition (%) | Binder
13 | 2.42 nM | 15.9% | LK-RB1-56 (antibody, human IgG4 S228P, kappa, V domains shown) VH: QVQLKQSGPGLVQPSQSLSITCSVSGFSLTNYGVHWVRQSPGKGLEWLGVIWRGGSTDNNAAFMSRLSITKDNSKSQVFFKMNSLQADDTAIYYCAKNSDFYGSSWYFDVWGTGTTVTVSS VL: QIVLSQSPAILSASPGEKVTMTCRASSSVSFMHWYQQKPGSSPKPWIYATSNLASGVPARFSGSGSGTSYSLTISRVEAEDAATYYCQQWSRNPPTFGAGTKLELKR
14 | 1.42 nM | 45.4% | LK-RB1-58 (antibody, human IgG4 S228P, kappa, V domains shown) VH: QVQLKQSGPGLVQPSQSLSITCTVSGFSLTTYGVHWVRQSPGKGLEWLGVIWRGGSTDYNAAFMSRLSITKDNSKSQVFFRMNSLQADDTARYYCAKNSLYYGSSWYFDVWGTGTTVTVSS VL: QIVLSQSPAILSASPGEKVTMTCRASSSVSFMHWYQQKPGSSPKPWIYATSNLASGVPARFSGSGSGTSYSLTISRVEAEDAATYYCQQWSSNPPTFGGGTKLEIKR
15 | 4.56 nM | 88.1% | 15G8 (antibody, human IgG4 S228P, kappa, V domains shown) VH: DVQLQGSGPGLVKPSETLSLTCSVTGYSITSGYYWNWIRQFPGKKLEWMGYISYDGSNNYNPSLKNRITISRDTSKNQFSLKLNSVTAADTATYYCAHGYSYYYAMDAWGQGTSVTVSS VL: DIQMTQSPSSLSASVGDRVTITCRTSQDISNYLNWYQQKPGKAVKLLISYTSRLHSGVPSRFSGSGSGTDYTLTISSLQPEDFATYYCQQGNTLPTFGQGTKLEIKR

These binders were tested against Rhesus LILRB1 (NP_001035762.2) on CHOK1 cells (rhesus macaque) (UniProt F7H3G7) (assay: flow cytometry on CHOK1-rhesus LILRB1 (NP_001035762.2) cells).

Row | EC50 | Binder
16 | 29.2 nM | LK-RB1-56 (antibody, human IgG4 S228P, kappa, V domains shown) VH: QVQLKQSGPGLVQPSQSLSITCSVSGFSLTNYGVHWVRQSPGKGLEWLGVIWRGGSTDNNAAFMSRLSITKDNSKSQVFFKMNSLQADDTAIYYCAKNSDFYGSSWYFDVWGTGTTVTVSS VL: QIVLSQSPAILSASPGEKVTMTCRASSSVSFMHWYQQKPGSSPKPWIYATSNLASGVPARFSGSGSGTSYSLTISRVEAEDAATYYCQQWSRNPPTFGAGTKLELKR
17 | 158 nM | LK-RB1-58 (antibody, human IgG4 S228P, kappa, V domains shown) VH: QVQLKQSGPGLVQPSQSLSITCTVSGFSLTTYGVHWVRQSPGKGLEWLGVIWRGGSTDYNAAFMSRLSITKDNSKSQVFFRMNSLQADDTARYYCAKNSLYYGSSWYFDVWGTGTTVTVSS VL: QIVLSQSPAILSASPGEKVTMTCRASSSVSFMHWYQQKPGSSPKPWIYATSNLASGVPARFSGSGSGTSYSLTISRVEAEDAATYYCQQWSSNPPTFGGGTKLEIKR
18 | 24.1 nM | 15G8 (antibody, human IgG4 S228P, kappa, V domains shown) VH: DVQLQGSGPGLVKPSETLSLTCSVTGYSITSGYYWNWIRQFPGKKLEWMGYISYDGSNNYNPSLKNRITISRDTSKNQFSLKLNSVTAADTATYYCAHGYSYYYAMDAWGQGTSVTVSS VL: DIQMTQSPSSLSASVGDRVTITCRTSQDISNYLNWYQQKPGKAVKLLISYTSRLHSGVPSRFSGSGSGTDYTLTISSLQPEDFATYYCQQGNTLPTFGQGTKLEIKR
